IC50, Kd and stoichiometry N data for 2 molecules are collected here from paper PMC4258549.

For test [1], the target named is biotinylated C4b (human). Briefly: AlphaScreen or HTRF.
In test [2] the target is biotinylated C4b (human). Nature of the test: AlphaScreen or HTRF. The source holds these as a separate data set.
The target in test [3] is biotinylated C4b (human). Briefly: SPR.
Test [4] has as its target complement component C4b (human). Nature of the test: AUC.

B1: complement component C2, recombinant, full-length (natural protein)
chain: APSCPQNVNISGGTFTLSHGWAPGSLLTYSCPQGLYPSPASRLCKSSGQWQTPGATRSLSKAVCKPVRCPAPVSFENGIYTPRLGSYPVGGNVSFECEDGFILRGSPVRQCRPNGMWDGETAVCDNGAGHCPNPGISLGAVRTGFRFGHGDKVRYRCSSNLVLTGSSERECQGNGVWSGTEPICRQPYSYDFPEDVAPALGTSFSHMLGATNPTQKTKESLGRKIQIQRSGHLNLYLLLDCSQSVSENDFLIFKESASLMVDRIFSFEINVSVAIITFASEPKVLMSVLNDNSRDMTEVISSLENANYKDHENGTGTNTYAALNSVYLMMNNQMRLLGMETMAWQEIRHAIILLTDGKSNMGGSPKTAVDHIREILNINQKRNDYLDIYAIGVGKLDVDWRELNELGSKKDGERHAFILQDTKALHQVFEHMLDVSKLTDTICGVGNMSANASDQERTPWHVTIKPKSQETCRGALISDQWVLTAAHCFRDGNDHSLWRVNVGDPKSQWGKEFLIEKAVISPGFDVFAKKNQGILEFYGDDIALLKLAQKVKMSTHARPICLPCTMEANLALRRPQGSTCRDHENELLNKQSVPAHFVALNGSKLNINLKMGVEWTSCAEVVSQEKTMFPNLTDVREVVTDQFLCSGTQEDESPCKGESGGAVFLERRFRFFQVGLVSWGLYNPCLGSADKNSRKRAPRSKVPPPRDFHINLFRMQPWLRQHLGDVLNFLPL
Regarding B1, the IC50 was 460 nM in test [1] and 180 nM in test [2].

B2: extracellular adherence protein (Eap), recombinant, full-length, untagged (natural protein)
chain: AAKPLDKSSSTLHHGHSNIQIPYTITVNGTSQNILSSLTFNKNQNISYKDIENKVKSVLYFNRGISDIDLRLSKQAEYTVHFKNGTKRVIDLKSGIYTADLINTSDIKAISVNVDTKKQPKDKAKANVQVPYTITVNGTSQNILSNLTFNKNQNISYKDLEGKVKSVLESNRGITDVDLRLSKQAKYTVNFKNGTKKVIDLKSGIYTANLINSSDIKSININVDTKKHIENKAKRNYQVPYSINLNGTSTNILSNLSFSNKPWTNYKNLTSQIKSVLKHDRGISEQDLKYAKKAYYTVYFKNGGKRILQLNSKNYTANLVHAKDVKRIEITVKTGTKAKADRYVPYTIAVNGTSTPILSKLKISNKQLISYKYLNDKVKSVLKSERGISDLDLKFAKQAKYTVYFKNGKKQVVNLKSDIFTPNLFSAKDIKKIDIDVKQYTKSKKK
In test [1], B2 returned a Kd of 185 nM. In test [3], the IC50 amounted to 50 nM. This molecule also displayed a stoichiometry N in test [4] of 1.
